B1: Mannan-binding lectin serine protease 2 (Homo sapiens), O00187-2 (parent)
chain: MRLLTLLGLLCGSVATPLGPKWPEPVFGRLASPGFPGEYANDQERRWTLTAPPGYRLRLYFTHFDLELSHLCEYDFVKLSSGAKVLATLCGQESTDTERAPGKDTFYSLGSSLDITFRSDYSNEKPFTGFEAFYAAEDIDECQVAPGEAPTCDHHCHNHLGGFYCSCRAGYVLHRNKRTCSEQSL

Columns and labels:
mbl2_human MBL2, P11226 = variants of: B1; conditions: with mbl2_human MBL2, P11226
fcn2_human FCN2, Q15485 = variants of: B1; conditions: with fcn2_human FCN2, Q15485
Chain of fcn2_human FCN2, Q15485 (Q15485 whole entry): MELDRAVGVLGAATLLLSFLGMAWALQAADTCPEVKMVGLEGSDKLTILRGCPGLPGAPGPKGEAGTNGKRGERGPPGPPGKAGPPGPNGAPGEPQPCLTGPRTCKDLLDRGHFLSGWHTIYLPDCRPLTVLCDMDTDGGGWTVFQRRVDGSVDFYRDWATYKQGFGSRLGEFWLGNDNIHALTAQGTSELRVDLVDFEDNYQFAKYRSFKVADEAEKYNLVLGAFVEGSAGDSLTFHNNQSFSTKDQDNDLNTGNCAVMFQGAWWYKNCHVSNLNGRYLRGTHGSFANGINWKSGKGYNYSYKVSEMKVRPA

Chain of mbl2_human MBL2, P11226 (P11226 whole entry): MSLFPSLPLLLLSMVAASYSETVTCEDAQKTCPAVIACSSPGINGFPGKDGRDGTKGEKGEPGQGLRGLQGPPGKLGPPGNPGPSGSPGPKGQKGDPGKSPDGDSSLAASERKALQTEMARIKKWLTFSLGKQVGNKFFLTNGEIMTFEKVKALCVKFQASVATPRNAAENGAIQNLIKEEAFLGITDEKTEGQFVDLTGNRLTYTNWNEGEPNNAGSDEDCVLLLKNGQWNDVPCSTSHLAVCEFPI

Variant	effect of a mutation on the interaction (mbl2_human MBL2, P11226)	effect of a mutation on the interaction (fcn2_human FCN2, Q15485)
MRLLTLLGLLCGSVATPLGPKWPEPVFGRLASPGFPGEYANDQERRWTLTAPPGYALRLYFTHFDLELSHLCEYDFVKLSSGAKVLATLCGQESTDTERAPGKDTFYSLGSSLDITFRSDYSNEKPFTGFEAFYAAEDIDECQVAPGEAPTCDHHCHNHLGGFYCSCRAGYVLHRNKRTCSEQSL [R56A]	with no effect	with no effect
MRLLTLLGLLCGSVATPLGPKWPEPVFGRLASPGFPGEYANDQERRWTLTAPPGYRLRLYFTHFDLELSALCEYDFVKLSSGAKVLATLCGQESTDTERAPGKDTFYSLGSSLDITFRSDYSNEKPFTGFEAFYAAEDIDECQVAPGEAPTCDHHCHNHLGGFYCSCRAGYVLHRNKRTCSEQSL [H70A]	with no effect	with no effect
MRLLTLLGLLCGSVATPLGPKWPEPVFGRLASPGFPGEYANDQERRWTLTAPPGYRLRLYFTHFDLELSHLCAYDFVKLSSGAKVLATLCGQESTDTERAPGKDTFYSLGSSLDITFRSDYSNEKPFTGFEAFYAAEDIDECQVAPGEAPTCDHHCHNHLGGFYCSCRAGYVLHRNKRTCSEQSL [E73A]	with no effect	with no effect
MRLLTLLGLLCGSVATPLGPKWPEPVFGRLASPGFPGEYANDQERRWTLTAPPGYRLRLYFTHFDLELSHLCEADFVKLSSGAKVLATLCGQESTDTERAPGKDTFYSLGSSLDITFRSDYSNEKPFTGFEAFYAAEDIDECQVAPGEAPTCDHHCHNHLGGFYCSCRAGYVLHRNKRTCSEQSL [Y74A]	disrupting interaction strength	disrupting interaction strength
MRLLTLLGLLCGSVATPLGPKWPEPVFGRLASPGFPGEYANDQERRWTLTAPPGYRLRLYFTHFDLELSHLCEYAFVKLSSGAKVLATLCGQESTDTERAPGKDTFYSLGSSLDITFRSDYSNEKPFTGFEAFYAAEDIDECQVAPGEAPTCDHHCHNHLGGFYCSCRAGYVLHRNKRTCSEQSL [D75A]	decreasing interaction strength	decreasing interaction strength
MRLLTLLGLLCGSVATPLGPKWPEPVFGRLASPGFPGEYANDQERRWTLTAPPGYRLRLYFTHFDLELSHLCEYDFVKLSSGAKVLATLCGQQSTDTERAPGKDTFYSLGSSLDITFRSDYSNEKPFTGFEAFYAAEDIDECQVAPGEAPTCDHHCHNHLGGFYCSCRAGYVLHRNKRTCSEQSL [E93Q]	with no effect	with no effect
MRLLTLLGLLCGSVATPLGPKWPEPVFGRLASPGFPGEYANDQERRWTLTAPPGYRLRLYFTHFDLELSHLCEYDFVKLSSGAKVLATLCGQESTNTERAPGKDTFYSLGSSLDITFRSDYSNEKPFTGFEAFYAAEDIDECQVAPGEAPTCDHHCHNHLGGFYCSCRAGYVLHRNKRTCSEQSL [D96N]	with no effect	with no effect
MRLLTLLGLLCGSVATPLGPKWPEPVFGRLASPGFPGEYANDQERRWTLTAPPGYRLRLYFTHFDLELSHLCEYDFVKLSSGAKVLATLCGQESTDTARAPGKDTFYSLGSSLDITFRSDYSNEKPFTGFEAFYAAEDIDECQVAPGEAPTCDHHCHNHLGGFYCSCRAGYVLHRNKRTCSEQSL [E98A]	decreasing interaction strength	decreasing interaction strength
MRLLTLLGLLCGSVATPLGPKWPEPVFGRLASPGFPGEYANDQERRWTLTAPPGYRLRLYFTHFDLELSHLCEYDFVKLSSGAKVLATLCGQESTDTERAPGKDTFYSLGSSLDITFRSGYSNEKPFTGFEAFYAAEDIDECQVAPGEAPTCDHHCHNHLGGFYCSCRAGYVLHRNKRTCSEQSL [D120G]	disrupting interaction strength	disrupting interaction strength
MRLLTLLGLLCGSVATPLGPKWPEPVFGRLASPGFPGEYANDQERRWTLTAPPGYRLRLYFTHFDLELSHLCEYDFVKLSSGAKVLATLCGQESTDTERAPGKDTFYSLGSSLDITFRSDASNEKPFTGFEAFYAAEDIDECQVAPGEAPTCDHHCHNHLGGFYCSCRAGYVLHRNKRTCSEQSL [Y121A]	disrupting interaction strength	disrupting interaction strength
MRLLTLLGLLCGSVATPLGPKWPEPVFGRLASPGFPGEYANDQERRWTLTAPPGYRLRLYFTHFDLELSHLCEYDFVKLSSGAKVLATLCGQESTDTERAPGKDTFYSLGSSLDITFRSDYSNAKPFTGFEAFYAAEDIDECQVAPGEAPTCDHHCHNHLGGFYCSCRAGYVLHRNKRTCSEQSL [E124A]	decreasing interaction strength	with no effect
MRLLTLLGLLCGSVATPLGPKWPEPVFGRLASPGFPGEYANDQERRWTLTAPPGYRLRLYFTHFDLELSHLCEYDFVKLSSGAKVLATLCGQESTDTERAPGKDTFYSLGSSLDITFRSDYSNEKPFTGFEAFYAAEDIDECQVAPGAAPTCDHHCHNHLGGFYCSCRAGYVLHRNKRTCSEQSL [E148A]	decreasing interaction strength	decreasing interaction strength
